{
  "source": "paper PMC8445900",
  "target": "SARS-CoV-2 spike protein receptor-binding domain, wildtype (SARS-CoV-2) (UniProt P0DTC2)",
  "assay": "ITC",
  "data": [
    {"substance": "CC12.1 single-chain fragment variable (scFv)", "values": [
      {"measurement": "Kd", "value": 28, "unit": "nM"},
      {"measurement": "dH", "value": -4.8, "unit": "kcal/mol"}
    ]}
  ]
}
